{"source": "patent US20200096514", "key": {"[1]": {"biological_target": "T1, LAS-Q (not fully specified)", "T1 chain": "GLGGGAGK"}, "[2]": {"biological_target": "T2, ELA-Q (not fully specified)", "T2 chain": "GAAFAGK"}}}
{"protein": "recombinant mouse neutrophil elastase (protein) SEIVGGRPARPHAWPFMASLQRRGGHFCGATLIARNFVMSAAHCVNGLNFRSVQVVLGAHDLRRQERTRQTFSVQRIFENGFDPSQLLNDIVIIQLNGSATINANVQVAQLPAQGQGVGDRTPCLAMGWGRLGTNRPSPSVLQELNVTVVTNMCRRRVNVCTLVPRRQAGICFGDSGGPLVCNNLVQGIDSFIRGGCGSGLYPDAFAPVAEFADWINSIIRSHNDHLLTHPKDREGRTN", "values": [{"measurement": "reversal of FRET-quenched fluorescent signal (cleavage)", "setting": "[1]", "value": "ELA-Q and-to a lesser extent, LAS-Q-are each cleaved by neutrophil elastase"}, {"measurement": "reversal of FRET-quenched fluorescent signal (cleavage)", "setting": "[2]", "value": "ELA-Q and-to a lesser extent, LAS-Q-are each cleaved by neutrophil elastase"}]}
{"protein": "LasA protease of Pseudomonas aeruginosa (secreted, in culture supernatants) (protein) APPSNLMQLPWRQGYSWQPNGAHSNTGSGYPYSSFDASYDWPRWGSATYSVVAAHAGTVRVLSRCQVRVTHPSGWATNYYHMDQIQVSNGQQVSADTKLGVYASNINTALCEGGSSTGPHLHFSLLYNGAFVSLQGASFGPYRINVGTSNYDNDCRRYYFYNQSAGTTHCAFRPLYNPGLAL", "values": [{"measurement": "cleavage of LAS-Q by P. aeruginosa culture supernatants (fluorescence) set against LasA content by Western blot", "setting": "[1]", "value": "the non-cleaving strains lacked LasA in their supernatant, whereas supernatant from the substrate-cleaving strains contained substantial levels of LasA protein"}]}
